Laboratory results as given in PMC7429481 (British Journal of Pharmacology, 2020).

Legend:
[1] = target: T1, human SNAP‐GLP‐1 receptor (Homo sapiens, UniProt P43220); assay: cAMP by HTRF in HEK293‐SNAP‐GLP‐1 receptor cells; assay type: cell-based; conditions: 30 min incubation, n = 5
Procedure: Cells were stimulated with agonist for the indicated period in their respective growth mediums without FBS. […] At the end of the incubation period, cells were lysed and cAMP was determined by HTRF (cAMP Dynamic 2 kit, Cisbio) using a Spectramax i3x plate reader (Molecular Devices).

[2] = target: T1, human SNAP‐GLP‐1 receptor; assay: GLP‐1 receptor recycling by TR‐FRET in CHO‐K1‐SNAP‐GLP‐1 receptor cells; assay type: cell-based; conditions: H89 10 μM, exendin‐4 100 nM 30 min, n = 5

T1 sequence (P43220 24-463): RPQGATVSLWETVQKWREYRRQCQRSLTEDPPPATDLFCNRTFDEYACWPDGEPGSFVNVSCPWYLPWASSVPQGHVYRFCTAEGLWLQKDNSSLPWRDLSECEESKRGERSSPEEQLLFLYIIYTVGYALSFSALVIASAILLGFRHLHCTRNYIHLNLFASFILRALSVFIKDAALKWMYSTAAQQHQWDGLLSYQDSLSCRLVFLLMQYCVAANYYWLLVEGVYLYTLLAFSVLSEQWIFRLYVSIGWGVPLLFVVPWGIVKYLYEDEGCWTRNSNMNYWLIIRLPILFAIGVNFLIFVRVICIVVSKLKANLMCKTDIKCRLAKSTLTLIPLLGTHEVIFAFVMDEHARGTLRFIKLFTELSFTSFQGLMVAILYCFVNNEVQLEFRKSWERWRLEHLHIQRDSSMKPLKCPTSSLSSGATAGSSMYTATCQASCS

Row | Molecule | cAMP signalling potency of FITC conjugate [1] | effect on GLP‐1 receptor recycling after exendin‐4 pretreatment [2]
1 | lixisenatide‐FITC: FITC‐conjugate of lixisenatide | reduced cAMP signalling potency | 
2 | O=S(=O)(NCCNC/C=C/c1ccc(Br)cc1)c1cccc2cnccc12 [H89] |  | did not affect
